Test results as given in paper PMC5539093, “Functional Characterization of Four Putative δ^1-Pyrroline-5-Carboxylate Reductases from Bacillus subtilis” (Frontiers in Microbiology, 2017).

Assays:
ProG = target: T1, ProG (Bacillus subtilis, UniProt Q00777); experiment: NAD(P)H oxidation at […] nm; format: biochemical
T1 construct: full-length; pMCSG68, N-terminal His6-TEV tag removed; E. coli BL21 Gold; homodimer by SAXS

ProH = target: T2, ProH (Bacillus subtilis, UniProt P0CI77); experiment: NAD(P)H oxidation at […] nm; format: biochemical
T2 construct: full-length; pMCSG68, N-terminal His6-TEV tag removed; E. coli BL21 Gold; homodimer by SAXS

ProI = target: T3, ProI (Bacillus subtilis, UniProt P54552); experiment: NAD(P)H oxidation at […] nm; format: biochemical
T3 construct: full-length; pMCSG68, N-terminal His6-TEV tag removed; E. coli BL21 Gold; homodimer by SAXS

ComER = target: T4, ComER (Bacillus subtilis, UniProt P39696); experiment: NAD(P)H oxidation at […] nm; format: biochemical
T4 construct: full-length; pMCSG68, N-terminal His6-TEV tag removed; E. coli BL21 Gold; monomer by SAXS

purified protein [1] = substrate: NC(=O)C1=CN([C@@H]2O[C@H](COP(=O)(O)OP(=O)(O)OC[C@H]3O[C@@H](n4cnc5c(N)ncnc54)[C@H](O)[C@@H]3O)[C@@H](O)[C@H]2O)C=CC1; experiment: purified protein; format: biochemical, Bacillus subtilis; conditions: 1 mM L-P5C, 20 mM Tris-HCl pH 7.0, 30°C
purified protein [2] = substrate: O=C(O)[C@@H]1CCC=N1; experiment: purified protein; format: biochemical, Bacillus subtilis; conditions: 0.5 mM NADPH, 20 mM Tris-HCl pH 7.0, 30°C
purified protein [3] = substrate: NC(=O)C1=CN([C@@H]2O[C@H](COP(=O)(O)OP(=O)(O)OC[C@H]3O[C@@H](n4cnc5c(N)ncnc54)[C@H](OP(=O)(O)O)[C@@H]3O)[C@@H](O)[C@H]2O)C=CC1; experiment: purified protein; format: biochemical, Bacillus subtilis; conditions: 1 mM L-P5C, 20 mM Tris-HCl pH 7.0, 30°C, kcat per monomer
[4] = target: the molecule itself; experiment: small-angle X-ray scattering (SAXS) in line with SEC; each native protein at 5 mg mL^-1 loaded onto a Superdex 200 column in 20 mM HEPES pH 8.0, 150 mM NaCl, 2 mM TCEP, routed into the flow cell; oligomeric state from mass, Rg, Dmax and ab initio envelope

Molecule | IC50 (ProH) [mM] | Km (purified protein [3]) [µM] | kcat (purified protein [3]) [s⁻¹] | kcat/Km (purified protein [3]) [M⁻¹ s⁻¹] | stoichiometry N [4] | further results
O=C(O)[C@@H]1CCCN1 [proline] | 41.4 ± 4.2 |  |  |  |  | IC50 (ProG): 22.3 ± 2.1 mM
NC(=O)c1ccc[n+]([C@@H]2O[C@H](COP(=O)(O)OP(=O)(O)OC[C@H]3O[C@@H](n4cnc5c(N)ncnc54)[C@H](OP(=O)(O)O)[C@@H]3O)[C@@H](O)[C@H]2O)c1 [NADP^+] | 0.66 ± 0.1 |  |  |  |  | IC50 (ProG): 0.23 ± 0.03 mM; IC50 (ProI): 0.34 ± 0.04 mM; IC50 (ComER): 0.48 ± 0.07 mM
NC(=O)c1ccc[n+]([C@@H]2O[C@H](COP(=O)(O)OP(=O)(O)OC[C@H]3O[C@@H](n4cnc5c(N)ncnc54)[C@H](O)[C@@H]3O)[C@@H](O)[C@H]2O)c1 [NAD^+] | 44.5 ± 11.6 |  |  |  |  | IC50 (ProI): 6.22 ± 0.6 mM; IC50 (ComER): 29.7 ± 3.7 mM
ComER (Bacillus subtilis subsp. subtilis str. 168) (protein, full-length; pMCSG68, N-terminal His6-TEV tag removed; E. coli BL21 Gold; monomer by SAXS) MKIGFIGTGNMGTILIESFIESKAADPSNMTITNRTIEKALHIKNRYNSINVTESLEKLVSENEMIFICVKPLDIYPLLARALPYLRKDHILISITSPVQTEQLEQYVPCQVARVIPSITNRALAGVSLVTFGTSCGESAKAKINELMQHISHPLQIESDITRVASDIVSCGPAFMSYLIQRFIDAAVSETSVSKQDAILMCKEMLVGMGKLLETELYTLPALQEKVCVKGGVTGEGIKALESGVQDMFHRVFQNTHMKYEEDISAVKKQFHV |  | 1.2 ± 0.4 | 0.09 | 75000 |  | Km (purified protein [1]; kcat per monomer): 226 ± 14 µM; kcat (purified protein [1]; kcat per monomer): 0.06 s⁻¹; kcat/Km (purified protein [1]; kcat per monomer): 270 M⁻¹ s⁻¹; Km (purified protein [2]; kcat per monomer): 3150 ± 1420 µM; kcat (purified protein [2]; kcat per monomer): 0.09 s⁻¹
ProI, putative δ1-pyrroline-5-carboxylate (P5C) reductase from Bacillus subtilis (enzyme, Bacillus subtilis strain 168, UniProt P54552 1-278, looked up, ProI, putative P5C reductase, Bacillus subtilis strain 168; calculated mass 30.90 kDa; Cloned in pMCSG68 (His6 tag and TEV site at the N-terminus); also called P5C reductase ProI; source: E. coli BL21 Gold, purified (Ni-NTA, TEV cleavage, second Ni-NTA, SEC on Superdex 200); not shown: His6, N-terminal, cleaved) MKKIGFVGAGSMAEAMINGILQSGITKPEHIYITNRSNDERLIELKETYSVRPCRDKNEFFTHTDIIILAFKPKDAAESIDSIRPYIKDQLVISVLAGLTIETIQHYFGRKLAVIRVMPNTSAAIRKSATGFSVSTEASKNDIIAAKALLETIGDATLVEERHLDAVTAIAGSGPAYVYRYIEAMEKAAQKVGLDKETAKALILQTMAGATDMLLQSGKQPEKLRKEITSPGGTTEAGLRALQDSRFEEAIIHCIEETAKRSAEIKEQFAGAALERHS |  | 51.8 ± 2.8 | 0.14 | 2600 | 2 | Km (purified protein [1]; kcat per monomer): 1,810 ± 480 μM; kcat (purified protein [1]; kcat per monomer): 0.28 s⁻¹; kcat/Km (purified protein [1]; kcat per monomer): 150 M⁻¹ s⁻¹; Km (purified protein [2]): 203 ± 30 µM
ProG, putative δ1-pyrroline-5-carboxylate (P5C) reductase from Bacillus subtilis (enzyme, Bacillus subtilis strain 168, UniProt Q00777 1-272, looked up, ProG, putative P5C reductase, Bacillus subtilis strain 168; calculated mass 30.20 kDa; Cloned in pMCSG68 (His6 tag and TEV site at the N-terminus); also called P5C reductase ProG; source: E. coli BL21 Gold, purified (Ni-NTA, TEV cleavage, second Ni-NTA, SEC on Superdex 200); not shown: His6, N-terminal, cleaved) MEQIGLIGYGSMADMIARQLLKHEQIKENELFIETRTKGERLRALMSDYPNVSADPLENWANTCQLILICVPPLHVIETMRRLYPYVNRNTHIVSIAAGVPLRLLEAETEAGISRVIPAITSEAEAGISLVVHSEALAAEKKERLNELLSVFSRVREIKESNLDVASNLTSSAPGFIAAIFEELALSAVRNSSLSKEEAFDFLIHSLYGTGKMLIEKNMSFEETLERVATKGGITGEGAEVIHASVPDVFDEVFERTLRKYELLTEQVGKQT |  | 232 ± 18 | 19 | 84000 | 2 | Km (purified protein [2]): 64.9 ± 8.1 µM
ProH (Bacillus subtilis subsp. subtilis str. 168) (protein, full-length; pMCSG68, N-terminal His6-TEV tag removed; E. coli BL21 Gold; homodimer by SAXS) MRTKKRTKEMLPIFDQKKVAFIGAGSMAEGMISGIVRANKIPKQNICVTNRSNTERLTELELQYGIKGALPNQLCIEDMDVLILAMKPKDAENALSSLKSRIQPHQLILSVLAGITTSFIEQSLLNEQPVVRVMPNTSSMIGASATAIALGKYVSEDLKKLAEALLGCMGEVYTIQENQMDIFTGIAGSGPAYFYYLMEFIEKTGEEAGLDKQLSRSIGAQTLLGAAKMLMETGEHPEILRDNITSPNGTTAAGLQA |  | 13.6 ± 2.6 | 814 | 6.3e+07 |  | Km (purified protein [1]): 786 ± 36 µM
ProH, putative δ1-pyrroline-5-carboxylate (P5C) reductase from Bacillus subtilis (enzyme, Bacillus subtilis strain 168, UniProt P0CI77 1-297, looked up, ProH, putative P5C reductase, Bacillus subtilis strain 168; calculated mass 32.03 kDa; Cloned in pMCSG68 (His6 tag and TEV site at the N-terminus); also called P5C reductase ProH; source: E. coli BL21 Gold, purified (Ni-NTA, TEV cleavage, second Ni-NTA, SEC on Superdex 200); not shown: His6, N-terminal, cleaved) MRTKKRTKEMLPIFDQKKVAFIGAGSMAEGMISGIVRANKIPKQNICVTNRSNTERLTELELQYGIKGALPNQLCIEDMDVLILAMKPKDAENALSSLKSRIQPHQLILSVLAGITTSFIEQSLLNEQPVVRVMPNTSSMIGASATAIALGKYVSEDLKKLAEALLGCMGEVYTIQENQMDIFTGIAGSGPAYFYYLMEFIEKTGEEAGLDKQLSRSIGAQTLLGAAKMLMETGEHPEILRDNITSPNGTTAAGLQALKKSGGGEAISQAIKHAAKRSKEISEDIEKTAAPLSGVIK |  |  |  |  | 2 | 
